According to article PMC5693944, “Ml proteins from Mesorhizobium loti and MucR from Brucella abortus: an AT-rich core DNA-target site and oligomerization ability”:

T1: Ml2 (Mesorhizobium loti, UniProt A0A1A5JHX8 1-141)
T1 sequence: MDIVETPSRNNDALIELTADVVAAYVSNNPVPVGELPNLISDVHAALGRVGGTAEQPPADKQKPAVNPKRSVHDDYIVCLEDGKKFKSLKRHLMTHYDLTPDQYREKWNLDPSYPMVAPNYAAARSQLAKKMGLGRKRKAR


Tests used:
Ml2 = molecular target: T1, Ml2; assay: EMSA; conditions: protein: recombinant; chain copies: 10
MucR = MucR (Brucella abortus 2308, UniProt Q2YMR3 1-142); assay: EMSA; conditions: protein: recombinant; chain copies: 10; blunt

Binder	binding result (Ml2)	binding result (MucR)
Core2 (dsDNA) DNA 1: GGCGCCGAAATAACGGAGCG DNA 2: CGCTCCGTTATTTCGGCGCC	binds	
Seq1.2 (dsDNA) DNA 1: CCACTGACCGCGTCGCGTCA DNA 2: TGACGCGACGCGGTCAGTGG	no binding	no binding
Core2mut (dsDNA) DNA 1: GGCGCCGAAAAAACGGAGCG DNA 2: CGCTCCGTTTTTTCGGCGCC	no binding	
Seq3.1 (dsDNA) DNA 1: ATTGACGCCCTAATAAGCTA DNA 2: TAGCTTATTAGGGCGTCAAT	no binding	no binding
Exoy43bp (dsDNA) DNA 1: CCACTGAAATAGTCGCGTCATGAATTGACTAAATAATAAGCTA DNA 2: TAGCTTATTATTTAGTCAATTCATGACGCGACTATTTCAGTGG	binds	binds
Core4 (dsDNA) DNA 1: GCGAAAAAAATAATTTTGCC DNA 2: GGCAAAATTATTTTTTTCGC	binds	
Seq3.2 (dsDNA) DNA 1: ATTGACTAAAGCCGAAGCTA DNA 2: TAGCTTCGGCTTTAGTCAAT	no binding	no binding
Core3 (dsDNA) DNA 1: GGCGCCGAAATACCGGAGCG DNA 2: CGCTCCGGTATTTCGGCGCC	binds	
Core5 (dsDNA) DNA 1: GGCGCCGATATATCGGAGCG DNA 2: CGCTCCGATATATCGGCGCC	binds	
Seq1.1 (dsDNA) DNA 1: CCACGTCCCTAGTCGCGTCA DNA 2: TGACGCGACTAGGGACGTGG	no binding	no binding
Core1 (dsDNA) DNA 1: GGCGCCGAAATAGCGGAGCG DNA 2: CGCTCCGCTATTTCGGCGCC	binds	
Core4mut (dsDNA) DNA 1: GCGAAAAAAAAAATTTTGCC DNA 2: GGCAAAATTTTTTTTTTCGC	no binding	
